# Data published in patent US20260191929A1.
# Target: mouse CD117 (stem cell factor receptor, c-Kit) on mouse bone marrow and lung cells (mouse) (UniProt P05532)
# Assay: cell-based or functional assay
# Chain of UniProt P05532 (P05532 25-979): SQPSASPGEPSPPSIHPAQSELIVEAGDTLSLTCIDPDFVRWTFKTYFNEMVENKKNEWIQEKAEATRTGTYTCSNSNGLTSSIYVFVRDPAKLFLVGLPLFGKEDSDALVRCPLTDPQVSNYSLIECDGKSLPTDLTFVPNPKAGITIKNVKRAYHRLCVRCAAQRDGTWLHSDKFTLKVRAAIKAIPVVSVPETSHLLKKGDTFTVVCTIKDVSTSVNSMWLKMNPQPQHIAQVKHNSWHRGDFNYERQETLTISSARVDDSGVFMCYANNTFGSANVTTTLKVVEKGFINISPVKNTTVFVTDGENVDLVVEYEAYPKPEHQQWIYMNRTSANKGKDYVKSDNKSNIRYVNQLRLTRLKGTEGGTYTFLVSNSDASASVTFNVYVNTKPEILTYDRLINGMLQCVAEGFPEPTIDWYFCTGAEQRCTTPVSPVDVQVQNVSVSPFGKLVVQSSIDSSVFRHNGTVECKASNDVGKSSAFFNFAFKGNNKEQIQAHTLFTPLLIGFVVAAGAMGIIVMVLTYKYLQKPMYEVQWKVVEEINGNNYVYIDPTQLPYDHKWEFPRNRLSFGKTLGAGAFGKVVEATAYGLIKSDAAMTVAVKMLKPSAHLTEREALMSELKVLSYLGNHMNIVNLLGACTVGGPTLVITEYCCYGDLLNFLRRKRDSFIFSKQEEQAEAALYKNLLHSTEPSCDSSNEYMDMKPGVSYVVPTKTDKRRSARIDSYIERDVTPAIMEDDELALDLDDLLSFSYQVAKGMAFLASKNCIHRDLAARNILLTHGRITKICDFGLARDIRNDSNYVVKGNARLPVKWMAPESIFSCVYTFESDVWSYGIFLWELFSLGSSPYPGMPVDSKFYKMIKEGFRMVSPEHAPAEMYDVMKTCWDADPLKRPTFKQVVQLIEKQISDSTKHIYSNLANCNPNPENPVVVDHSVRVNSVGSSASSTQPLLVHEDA
substance,measurement,value
"purified rat anti-mouse CD117 (c-kit), clone 2B8 (BioLegend 93235), conjugated to LNP-mRNA (antibody)",gene editing (tdTomato) frequency in cKit+ lung cells after in vivo CD117/LNP-Cre,90%
same,"luciferase activity normalized to the frequency of antigen positive cells, Lin- cells, relative to CD45/LNP",700 fold
same,"luciferase activity normalized to the frequency of antigen positive cells, whole bone marrow (WBM), relative to CD45/LNP",500 fold
